B1: Soluble human recombinant p97 (melanotransferrin) (other)
chain: GMEVRWCATSDPEQHKCGNMSEAFREAGIQPSLLCVRGTSADHCVQLIAAQEADAITLDGGAIYEAGKEHGLKPVVGEVYDQEVGTSYYAVAVVRRSSHVTIDTLKGVKSCHTGINRTVGWNVPVGYLVESGRLSVMGCDVLKAVSDYFGGSCVPGAGETSYSESLCRLCRGDSSGEGVCDKSPLERYYDYSGAFRCLAEGAGDVAFVKHSTVLENTDGKTLPSWGQALLSQDFELLCRDGSRADVTEWRQCHLARVPAHAVVVRADTDGGLIFRLLNEGQRLFSHEGSSFQMFSSEAYGQKDLLFKDSTSELVPIATQTYEAWLGHEYLHAMKGLLCDPNRLPPYLRWCVLSTPEIQKCGDMAVAFRRQRLKPEIQCVSAKSPQHCMERIQAEQVDAVTLSGEDIYTAGKKYGLVPAAGEHYAPEDSSNSYYVVAVVRRDSSHAFTLDELRGKRSCHAGFGSPAGWDVPVGALIQRGFIRPKDCDVLTAVSEFFNASCVPVNNPKNYPSSLCALCVGDEQGRNKCVGNSQERYYGYRGAFRCLVENAGDVAFVRHTTVFDNTNGHNSEPWAAELRSEDYELLCPNGARAEVSQFAACNLAQIPPHAVMVRPDTNIFTVYGLLDKAQDLFGDDHNKNGFKMFDSSNYHGQDLLFKDATVRAVPVGEKTTYRGWLGLDYVAALEGMSSQQCSG
notes: Provided by Biomarin Pharmaceutical Inc; also called soluble p97; MTf

Key:
plasminogen [1] = molecular target: T1, plasminogen (UniProt P00747 20-810); test: SPR (BIAcore), plasminogen over immobilised p97, two state conformational change model (ka1)
T1 construct: Bought reagent; also called Plg; glu-plasminogen
T1 sequence (P00747 20-810 limits assumed): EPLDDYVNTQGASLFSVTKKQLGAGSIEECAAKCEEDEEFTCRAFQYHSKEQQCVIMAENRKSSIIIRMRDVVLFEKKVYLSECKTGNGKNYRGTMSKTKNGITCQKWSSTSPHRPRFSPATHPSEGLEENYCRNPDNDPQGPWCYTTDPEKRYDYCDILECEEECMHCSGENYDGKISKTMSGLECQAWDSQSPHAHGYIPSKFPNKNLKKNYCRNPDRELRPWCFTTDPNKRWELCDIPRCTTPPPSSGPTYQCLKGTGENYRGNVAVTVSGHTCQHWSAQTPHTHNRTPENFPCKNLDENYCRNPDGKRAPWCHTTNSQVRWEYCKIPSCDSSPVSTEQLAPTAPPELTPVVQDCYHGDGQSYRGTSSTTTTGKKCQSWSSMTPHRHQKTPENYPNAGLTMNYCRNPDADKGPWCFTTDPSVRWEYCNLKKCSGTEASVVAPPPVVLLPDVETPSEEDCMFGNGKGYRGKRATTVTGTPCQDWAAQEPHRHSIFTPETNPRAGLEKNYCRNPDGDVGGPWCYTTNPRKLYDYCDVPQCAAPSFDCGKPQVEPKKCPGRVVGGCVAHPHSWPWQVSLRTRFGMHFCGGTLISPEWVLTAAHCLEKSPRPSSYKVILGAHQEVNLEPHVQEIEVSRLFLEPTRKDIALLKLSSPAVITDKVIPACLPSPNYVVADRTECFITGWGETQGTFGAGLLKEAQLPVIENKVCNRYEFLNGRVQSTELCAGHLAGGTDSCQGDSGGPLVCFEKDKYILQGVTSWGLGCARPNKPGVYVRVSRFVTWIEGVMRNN
Method: (§1) Ringer solution or a 50 mM Tris/HCl buffer (pH 7.5) containing 150 mM NaCl and 50 mM CaCl₂ is used as the eluent buffer. Proteins are diluted in the corresponding eluent buffer and injected onto the sensor chip surface. Protein interactions are analyzed using both the Langmuir binding model, which is the simplest model for 1:1 interaction between analyte and immobilized ligand, and a two-state conformational change model which describes a 1:1 binding of analyte to immobilized ligand followed by a conformational change.
(§2) The SPR response for these proteins is plotted in RU as a function of time.
(§3) About 8-10 ng/mm² of PAI-1 was also immobilized onto another well of a sensor chip surface using NHS/EDC coupling conditions.

[2] = molecular target: T2, pro-urokinase plasminogen activator (pro-uPA) (UniProt P00749 21-431, limits assumed); test: SPR (BIAcore), pro-uPA over immobilised p97, two state conformational change model (ka1)
T2 construct: Bought reagent; also called sc-uPA; scu-PA
Method: (§4) Protein interactions are analyzed using both the Langmuir binding model, which is the simplest model for 1:1 interaction between analyte and immobilized ligand, and a two-state conformational change model which describes a 1:1 binding of analyte to immobilized ligand followed by a conformational change.
as §2, §3

plasminogen [3] = molecular target: T1, plasminogen; test: SPR (BIAcore), plasminogen over immobilised p97, two state conformational change model (kd1)
Method: as §1, §2, §3

[4] = molecular target: T2, pro-urokinase plasminogen activator …; test: SPR (BIAcore), two state conformational change model; text value differs from Table 3
Method: as §4, §2, §3

plasminogen [5] = molecular target: T1, plasminogen; test: cell-based or functional assay
plasminogen [6] = molecular target: T1, plasminogen; test: SPR (BIAcore), p97 over immobilised plasminogen, two state conformation change model
Method: as §1

plasminogen [7] = molecular target: T1, plasminogen; test: SPR (BIAcore), various concentrations of p97 injected over immobilised plasminogen; plasminogen immobilized, p97 injected
Method: as §1

[8] = molecular target: the molecule itself; test: SPR (BIAcore), soluble p97 injected over p97 immobilised on a CM5 chip
Method: as §1
(§5) Transcytosis experiments are performed at 37° C. for 2 hrs. […] At the end of the experiment, radiolabelled proteins are measured in the lower chamber of each well by TCA precipitation.

[9] = molecular target: T2, pro-urokinase plasminogen activator …; test: SPR (BIAcore), pro-uPA over immobilised p97, two state conformational change model (apparent KD)
Method: as §4, §2, §3

[10] = molecular target: T2, pro-urokinase plasminogen activator …; test: SPR (BIAcore), pro-uPA over immobilised p97, two state conformational change model (kd1)
Method: as §4, §2, §3

plasmin = plasmin (UniProt P00747 97-810, limits assumed); test: SPR (BIAcore), plasmin injected over immobilised p97
Chain of plasmin (P00747 97-810 limits assumed): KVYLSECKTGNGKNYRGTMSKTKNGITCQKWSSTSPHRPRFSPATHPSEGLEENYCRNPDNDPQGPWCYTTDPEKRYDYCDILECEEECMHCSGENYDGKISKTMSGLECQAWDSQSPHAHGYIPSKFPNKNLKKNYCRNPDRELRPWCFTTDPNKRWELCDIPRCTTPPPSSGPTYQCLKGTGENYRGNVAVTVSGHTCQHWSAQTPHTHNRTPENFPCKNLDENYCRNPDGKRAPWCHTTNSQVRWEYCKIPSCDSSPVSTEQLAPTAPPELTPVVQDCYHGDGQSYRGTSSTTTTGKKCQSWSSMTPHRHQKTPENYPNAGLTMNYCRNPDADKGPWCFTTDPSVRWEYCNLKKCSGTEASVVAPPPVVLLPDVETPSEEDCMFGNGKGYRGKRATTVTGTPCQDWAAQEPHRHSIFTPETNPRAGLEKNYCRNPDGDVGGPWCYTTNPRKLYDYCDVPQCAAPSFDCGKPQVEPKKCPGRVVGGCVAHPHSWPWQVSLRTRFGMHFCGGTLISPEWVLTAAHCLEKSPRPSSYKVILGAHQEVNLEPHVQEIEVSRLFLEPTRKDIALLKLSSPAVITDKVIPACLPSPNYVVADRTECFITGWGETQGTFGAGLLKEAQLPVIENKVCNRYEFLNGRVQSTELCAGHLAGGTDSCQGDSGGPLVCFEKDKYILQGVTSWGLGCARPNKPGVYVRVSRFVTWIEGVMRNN
Method: as §1, §2, §3

plasminogen [11] = molecular target: T1, plasminogen; test: SPR (BIAcore), plasminogen over immobilised p97, two state conformational change model (apparent KD)
Method: as §1, §2, §3

[12] = molecular target: B1; test: SPR (BIAcore), RAP injected over immobilised p97
Method: as §1, §5

[13] = molecular target: B1; test: SPR (BIAcore), tPA injected over immobilised p97
Method: as §1, §2, §3

[14] = molecular target: B1; test: SPR (BIAcore), angiostatin injected over immobilised p97
Method: as §1, §2, §3

[15] = molecular target: B1; test: not described (Discussion; presumably SPR)

B1 gave a kon (plasminogen [1]) of 21000 M⁻¹ s⁻¹, a kon [2] of 6620 M⁻¹ s⁻¹ and a koff (plasminogen [3]) of 0.043 s⁻¹. The kon [4] was 6600 M⁻¹ s⁻¹, the “increase of plasminogen activation by tPA after 180 minutes (VLK-peptide hydrolysis)” value (plasminogen [5]) was 6 fold and the “increase of plasminogen activation by tPA in the presence of p97 (VLK peptide hydrolysis)” value (plasminogen [5]) was 4 fold. The Kd (plasminogen [6]) was 260 nM, the Kd (plasminogen [7]) was 275 nM and the binding result [8] was “no binding (tested: 0.05 µg/µl (5 µg/100 µl))”. For the same binder, the Kd [9] was 65 nM, the koff [10] was 0.0017 s⁻¹ and the binding result (plasmin) was “no binding (tested: 0.05 µg/µl)”. It also gave a Kd (plasminogen [11]) of 350 nM.

B2: receptor-associated protein (RAP) (other, UniProt P30533 35-357, looked up)
chain: YSREKNQPKPSPKRESGEEFRMEKLNQLWEKAQRLHLPPVRLAELHADLKIQERDELAWKKLKLDGLDEDGEKEARLIRNLNVILAKYGLDGKKDARQVTSNSLSGTQEDGLDDPRLEKLWHKAKTSGKFSGEELDKLWREFLHHKEKVHEYNVLLETLSRTEEIHENVISPSDLSDIKGSVLHSRHTELKEKLRSINQGLDRLRRVSHQGYSTEAEFEEPRVIDLWDLAQSANLTDKELEAFREELKHFEAKIEKHNHYQKQLEIAHEKLRHAESVGDGERVSRSREKHALLEGRTKELGYTVKKHLQDLSGRISRARHNEL
B2: no binding (tested: 0.05 µg/µl) [12].

B3: tissue plasminogen activator (tPA) (enzyme, UniProt P00750 36-562, looked up)
chain: SYQVICRDEKTQMIYQQHQSWLRPVLRSNRVEYCWCNSGRAQCHSVPVKSCSEPRCFNGGTCQQALYFSDFVCQCPEGFAGKCCEIDTRATCYEDQGISYRGTWSTAESGAECTNWNSSALAQKPYSGRRPDAIRLGLGNHNYCRNPDRDSKPWCYVFKAGKYSSEFCSTPACSEGNSDCYFGNGSAYRGTHSLTESGASCLPWNSMILIGKVYTAQNPSAQALGLGKHNYCRNPDGDAKPWCHVLKNRRLTWEYCDVPSCSTCGLRQYSQPQFRIKGGLFADIASHPWQAAIFAKHRRSPGERFLCGGILISSCWILSAAHCFQERFPPHHLTVILGRTYRVVPGEEEQKFEVEKYIVHKEFDDDTYDNDIALLQLKSDSSRCAQESSVVRTVCLPPADLQLPDWTECELSGYGKHEALSPFYSERLKEAHVRLYPSSRCTSQHLLNRTVTDNMLCAGDTRSGGPQANLHDACQGDSGGPLVCLNDGRMTLVGIISWGLGCGQKDVPGVYTKVTNYLDWIRDNMRP
notes: Bought reagent
B3: no binding (tested: 0.05 µg/µl) [13].

B4: angiostatin (other, UniProt P00747 98-459, looked up)
chain: VYLSECKTGNGKNYRGTMSKTKNGITCQKWSSTSPHRPRFSPATHPSEGLEENYCRNPDNDPQGPWCYTTDPEKRYDYCDILECEEECMHCSGENYDGKISKTMSGLECQAWDSQSPHAHGYIPSKFPNKNLKKNYCRNPDRELRPWCFTTDPNKRWELCDIPRCTTPPPSSGPTYQCLKGTGENYRGNVAVTVSGHTCQHWSAQTPHTHNRTPENFPCKNLDENYCRNPDGKRAPWCHTTNSQVRWEYCKIPSCDSSPVSTEQLAPTAPPELTPVVQDCYHGDGQSYRGTSSTTTTGKKCQSWSSMTPHRHQKTPENYPNAGLTMNYCRNPDADKGPWCFTTDPSVRWEYCNLKKCSGTEA
notes: domain: angiostatin (plasminogen fragment)
B4: no binding (tested: 0.05 µg/µl) [14].

B5: ovalbumin (other, UniProt P01012 2-386, looked up)
chain: GSIGAASMEFCFDVFKELKVHHANENIFYCPIAIMSALAMVYLGAKDSTRTQINKVVRFDKLPGFGDSIEAQCGTSVNVHSSLRDILNQITKPNDVYSFSLASRLYAEERYPILPEYLQCVKELYRGGLEPINFQTAADQARELINSWVESQTNGIIRNVLQPSSVDSQTAMVLVNAIVFKGLWEKAFKDEDTQAMPFRVTEQESKPVQMMYQIGLFRVASMASEKMKILELPFASGTMSMLVLLPDEVSGLEQLESIINFEKLTEWTSSNVMEERKIKVYLPRMKMEEKYNLTSVLMAMGITDVFSSSANLSGISSAESLKISQAVHAAHAEINEAGREVVGSAEAGVDAASVSEEFRADHPFLFCIKHIATNAVLFFGRCVSP
B5: no binding [15].
